Laboratory results as given in the nanobody polyreactivity screen of Harvey et al. (2022).

Experiment: yeast display, Sf9 membrane polyspecificity reagent, FACS + sequencing; frameworks hold sequencing errors
Outline: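 Nanobodies from a synthetic yeast display library (Saccharomyces cerevisiae BJ5465), induced 36–48 hours with galactose, were stained 1 hour at 4 °C with 10% biotinylated, detergent-solubilized Sf9 membrane reagent, enriched on streptavidin microbeads, then FACS-sorted. Anti-HA (expression) and streptavidin (reagent binding) fluorescence set low and high (top ~1%) gates. Polyreactivity labels come from the gate of origin. Genes were colony-PCR amplified, MiSeq 2 × 250 sequenced and filtered by CDR length.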

| Sequence | polyreactivity (PSR sort gate) |
| --- | --- |
| QVQLVESGGGLVQAGGSLRLSCAASGSIFRYNAMGWYRQAPGKDRELVAAISSGGSTKYADSVKGRFTISRDNAKNTVYLQMNSMKPEDTAVYFCVARRARYDYWGQGTQVTVSS | high polyreactivity |
| QVQLVESGGGLVQAGGSLRLSCAASGSIFRYNAMGWYRQAPGKERELVAAISSGGSTKYADSVKGRFTISRDNAKKTVYLQMNSLKPEDTAVYYCVARRARYDYWGQGTQVTVSS | high polyreactivity |
| QVQLVESGGGLVQAGGSLRLSCAASGSIFRYNAMGWYRQAPGKERELVAAITRSGGRTYYADSVKGRFTISRDNAKNTVYLQMNSLKPEDTAVYYCAAKGYTYGLTYDYWGQGTQVTVSS | high polyreactivity |
| QVQLVESGGGLVQAGGSLRLSCAASGSIFRYNAMGWYRQAPGKERELVAGITWGGGRTYYADSVKGRFTISRDNAKNTVYLQMNSLKPEDTAVYYCAAVIARPAVQAYLVTKYDYWGQGTQVTVSS | high polyreactivity |
| QVQLVESGGGLVQAGGSLRLSCAASGSIFRYYAMGWYRQAPGKEREFVAAINTNDAGTYYADSVKGRFTISRDNAKNTVYLQMNSLKPEDTAVYYCAADTGYPFWYDYWGQGTQVTVSS | high polyreactivity |
| QVQLVESGGGLVQAGGSLRLSCAASGSIFRYYAMGWYRQAPGKERELVAAIRWSGGSTYYADSVKGRFTISRDNAKNTVYLQMNSLKPEDTAVYYCAARVGYRGSRQYSSYTLVDYWGQGTQVTVSS | high polyreactivity |
| QVQLVESGGGLVQAGGSLRLSCAASGSIFRYYAMGWYRQAPGKERELVAAISSGTITNYADSVKGRFTISRDNAKNTVYLQMNSLKPEDTAVYYCAADTWYLGYPDYWLDYWGQGTQVTVSS | low polyreactivity |
| QVQLVESGGGLVQAGGSLRLSCAASGSIFRYYAMGWYRQAPGKERELVAAITGRGGSTYYADSVKGRFTISRDNAKNTVYLQMNSLKPEDTAVYYCADYIDANVHRFDYWGQGTQVTVSS | low polyreactivity |
| QVQLVESGGGLVQAGGSLRLSCAASGSIFRYYAMGWYRQAPGKERELVATISRDGGNTYYADSVKGRFTISRDNAKNTVYVQMNSLKPEDTAVYYCAKLGYRLSGYGYDYWGQGTQVTVSS | high polyreactivity |
| QVQLVESGGGLVQAGGSLRLSCAASGSIFRYYAMGWYRQAPGKERELVATITFNGGNTYYADSVKGRFTISRDNAKNTVYLQMNSLKPEDTAVYYCAATYVRRGPTRYYYWGQGTQVTVSS | high polyreactivity |
| QVQLVESGGGLVQAGGSLRLSCAASGSIFRYYAMGWYRQAPGKERELVATITSGGSTSYADSVKGRFTISRDNAKNTVYLQMNSLKPEDTAVYYCAKRSRHNKYYYWGQGTQVTVSS | high polyreactivity |
| QVQLVESGGGLVQAGGSLRLSCAASGSIFRYYAMGWYRQAPGKERELVAVITRGGSTYYADSVKGRFTISRDNAKNTVYLQMNRLKPEDTAVYYCAADFWPAGLDRGYWGQGTQVTVSS | low polyreactivity |
| QVQLVESGGGLVQAGGSLRLSCAASGSIFRYYAMGWYRQAPGKERELVAVITSSGTSTYYADSVKGRFTISRDNAKNTVYLQMNSLKPEDTAVYYCARRSSGELRYHIYDYWGQGTQVTLSS | low polyreactivity |
| QVQLVESGGGLVQAGGSLRLSCAASGSIFRYYAMGWYRQAPGKESEFVASITYRGGRTYYADSVKGRFTISRDNAKNTVYLQMNSLKPEDTAVYYCAARTRAGAWTSKYHDYWGQGTQVTVSS | high polyreactivity |
| QVQLVESGGGLVQAGGSLRLSCAASGSIFRYYGMGWSRQAPGKERELVAAITWRGSSTYYADSVKGRFTISRDNAKNSVYLQMNSLNPEDTAVYYCAAYSASYGGYDYWGQGTQVTVSS | high polyreactivity |
| QVQLVESGGGLVQAGGSLRLSCAASGSIFRYYTMGWDRQAPGKERELVAAISWSGGRTYYADSVKGRFTISRDNAKNTVYLQMNSLKPEDTAVYYCAAVRPYYYPLPTVPNLPYDYWGQGTQVTVSS | high polyreactivity |
| QVQLVESGGGLVQAGGSLRLSCAASGSIFRYYTMGWYRQAPGKERELVAGINRGGRTYYADSVKGRYTISRDNAKNTVYLQMNSLKPEDTAVYYCAAVTYYGFDYWGQGTQVTVSS | high polyreactivity |
| QVQLVESGGGLVQAGGSLRLSCAASGSIFRYYVMGWYRQAPGKERELVAAISSGGRTYYADSVKGRFTISRDNAKNTVYLQMNSLKPEDTAVYYCAAGEPTRGDYWGQGTQVTVSS | high polyreactivity |
| QVQLVESGGGLVQAGGSLRLSCAASGSIFRYYVMGWYRQAPGKERELVAAISTGDRTNYADSVKGRFTISRDNAKNTVYLQMNILKPEDTAVYYCNADYVVGWARLEFNYWGQGTQVTVSS | low polyreactivity |
| QVQLVESGGGLVQAGGSLRLSCAASGSIFRYYVMGWYRQAPGKERELVAAITKSAGSTYYADSVKGRFTISRDNAKNTVYLQMNSLKPEDTAVYYCAARRVSRGNSKFDYYWGQGTQVTVSS | high polyreactivity |
| QVQLVESGGGLVQAGGSLRLSCAASGSIFRYYVMGWYRQAPGKERELVASITGSGGSTYYADSLKGRFTISRDNAKNTVYLQMNSLKPEDTAVYYCAASYRMRYGYWGQGTQVTVSS | high polyreactivity |
| QVQLVESGGGLVQAGGSLRLSCAASGSIFSDYALGWYRQAPGKERELVAAITQSGGSTYADSVKGRFTISRDNAKNTVYLQMNSLIPEDTAVYYCAADEVPGFGYPPYPWFDYWGQGTQVTVSS | low polyreactivity |
| QVQLVESGGGLVQAGGSLRLSCAASGSIFSENTRGWYRQAPGKERELVAAISWSGGSTNYADSVKGRFTISRDNAKNTVYLQMNSLKPEDTAVYYCFYWGQCTQVTVSS | low polyreactivity |
| QVQLVESGGGLVQAGGSLRLSCAASGSIFSFYAMGWYRPAPGKERELVAAISYRGGSTYYADSVKGRFTISRDNAKNTVYIQMNSLKPVDSAVSYCAAARFPVFIQGYRMEYWGQGTQVTVSS | low polyreactivity |
| QVQLVESGGGLVQAGGSLRLSCAASGSIFSFYAMGWYRQAPGKEMELVATISSGDNTNYADSVKGRFTISRDNAKNTVYLQMNSLKPEDNAVYYCAADAWGVDREYDYWGQGTQVTVSS | low polyreactivity |
| QVQLVESGGGLVQAGGSLRLSCAASGSIFSFYAMGWYRQAPGKERELVADITWSGGRTYYADSVKGRFTISRDNAKNTVYLQMNSLKPEDTAVYYCNTELYLSRYKYVWSFDYWGQGTQVTVSS | low polyreactivity |
| QVQLVESGGGLVQAGGSLRLSCAASGSIFSGNAMGWYRQAPGKERELVAAITSGGSTYYADSVKGRFTISRDNAKNTVYLQMNSLKPEDTAVYYCAAVWYQYYYDRRHDYWGQGTQVTVSS | low polyreactivity |
| QVQLVESGGGLVQAGGSLRLSCAASGSIFSGNEMAWYRQAPGKERELVAAISSNGGRTYYADSVKGRFTISRDNEKNTVYLQMNSLKPEDTAVDYCAADSGKRRYGYYYWGQATQVTVSS | high polyreactivity |
| QVQLVESGGGLVQAGGSLRLSCAASGSIFSGNTMGWYRQAPGKERELVAAISGGGSTNYADSVKGRFTISRDNAKNTVYLQMNSLKPEDTAVYYCAAEPDHVADSHSGYDYWGQGTQVTVSS | low polyreactivity |
| QVQLVESGGGLVQAGGSLRLSCAASGSIFSGYAMGWYRQAPGKERELVAAISRGGSTNYADSVKGRFTISRDNAKNTVYLQMNSLKPEDTAVYYCATTPTKYHYAFGYWGQGSQVTVSS | low polyreactivity |
